Test [1] addresses S sensors L15 + S25: S(aa 328-533)-15aa-LgBiT and S(aa 328-533)-25aa-SmBiT (SARS-CoV-2).
Test [2] has as its target N sensors LN + SN: LgBiT-10aa-N(aa 44-257) and SmBiT-10aa-N(aa 44-257) (SARS-CoV-2). In words: spLUC, antibody dilution 1000000.
The target of test [3] is N sensors LC2 + SC2: N(aa 44-257)-LgBiT and N(aa 44-257)-SmBiT (SARS-CoV-2). In words: spLUC, antibody dilution 1000000.
Test [4] deals with N sensors LC + SC: N(aa 44-180)-10aa-LgBiT and N(aa 44-180)-10aa-SmBiT (SARS-CoV-2). In words: spLUC, antibody dilution 1000000.
Test [5] has as its target N sensors LN + SN: LgBiT-10aa-N(aa 44-257) and SmBiT-10aa-N(aa 44-257) (SARS-CoV-2). As to the kind of experiment: spLUC, antibody dilution 100.
Test [6] deals with N sensors LC2 + SC2: N(aa 44-257)-LgBiT and N(aa 44-257)-SmBiT (SARS-CoV-2). As to the kind of experiment: spLUC, antibody dilution 100.
Test [7] deals with N sensors LC + SC: N(aa 44-180)-10aa-LgBiT and N(aa 44-180)-10aa-SmBiT (SARS-CoV-2). As to the kind of experiment: spLUC, antibody dilution 100.
Test [8] addresses N sensors LN + SN: LgBiT-10aa-N(aa 44-257) and SmBiT-10aa-N(aa 44-257) (SARS-CoV-2). As to the kind of experiment: spLUC, antibody dilution 1000.
Test [9] concerns the target N sensors LC2 + SC2: N(aa 44-257)-LgBiT and N(aa 44-257)-SmBiT (SARS-CoV-2). In words: spLUC, antibody dilution 1000.
The target of test [10] is N sensors LC + SC: N(aa 44-180)-10aa-LgBiT and N(aa 44-180)-10aa-SmBiT (SARS-CoV-2). In words: spLUC, antibody dilution 1000.
Test [11] concerns the target N sensors LC2 + SC2: N(aa 44-257)-LgBiT and N(aa 44-257)-SmBiT (SARS-CoV-2). As to the kind of experiment: spLUC, antibody dilution 10000.
Test [12] concerns the target N sensors LC + SC: N(aa 44-180)-10aa-LgBiT and N(aa 44-180)-10aa-SmBiT (SARS-CoV-2). In words: spLUC, antibody dilution 10000.
The target in test [13] is N sensors LN + SN: LgBiT-10aa-N(aa 44-257) and SmBiT-10aa-N(aa 44-257) (SARS-CoV-2). As to the kind of experiment: spLUC, antibody dilution 100000.
Test [14] addresses N sensors LC2 + SC2: N(aa 44-257)-LgBiT and N(aa 44-257)-SmBiT (SARS-CoV-2). In words: spLUC, antibody dilution 100000.
Test [15] addresses N sensors LC + SC: N(aa 44-180)-10aa-LgBiT and N(aa 44-180)-10aa-SmBiT (SARS-CoV-2). In words: spLUC, antibody dilution 100000.

Several values for one entry are separate records, joined by “and”; a condition that tells them apart may be missing. Equal values may be shown once.

With C105 Fab, in [1], the percent of signal competed stood at 90%.
As for “rabbit polyclonal anti-N protein antibody (Sino Biological, Cat#: 40588-T62-50)”, the luminescence signal in test [2] was 138 and 104; in [3] it was 332 and 281; in test [4], 598 and 600; in test [5], 1970 and 2200; in test [6] it was 9060 and 9420; in test [7], 10900 and 10200. Also, the luminescence signal in test [8] was 677 and 684; in test [9], 2910 and 2790; in test [10], 4000 and 3560; in [11], 563 and 505; in test [12], 1030 and 694; in test [13] it was 146 and 145. The luminescence signal was 475 and 327 in test [14]; 811 and 592 in [15].

Values taken from patent US20230296621A1.
